Drawing on publication PMC3323579, this text covers Kd, percent inhibition of apoMb binding and stimulation of the ATPase activity of the 26S proteasome (580 nM substrate, 37°C, 15 min) for 9 substances.

Assay [1] deals with yeast 26S proteasome (RPN11-3XFLAG) (yeast) (UniProt P43588). In words: ELISA; 26S proteasome (1 µg/ml, 0.37 nM) captured on plates coated with anti-FLAG antibody; Mb 580 nM to 0.006 nM in TBST with 1 mM ATP, 5 mM MgCl2, 0.1% BSA; bound Mb detected with anti-Mb antibody; one site specific binding fit. In general terms: In an ELISA, binding on a coated surface is turned into a signal by an enzyme label.

Assay [2] has the same target. Kind of assay: ELISA; competition: 8 nM apoMb on immobilised 26S proteasome with peptides 100 µM to 0.01 µM; 100 nM MG132 in all incubations; Ki from a one site binding fit.
Assay [3] shares this target.

The Kd is the free concentration of one partner at which half of the binding sites on the other are occupied at equilibrium, for simple one-to-one binding. On to “apomyoglobin V10C (A-helix mutant) (natural protein)”, for which, in assay [1], the Kd amounted to 1.25 nM. This counts as single-digit nanomolar.
Take “apomyoglobin M131C (H-helix mutant) (natural protein)”: in assay [1], the Kd amounted to 45 nM.
In the case of “apomyoglobin L104C (G-helix mutant) (natural protein)”, the Kd in assay [1] was 0.6 nM. This Kd is about 75-fold lower than that of the substance before.
myoglobin peptide F7 (90-104) returned a percent inhibition of apoMb binding at 100 µM peptide in assay [2] of 65%.
“apomyoglobin L115C (G-helix mutant) (natural protein)” yielded a dissociation constant (Kd) in assay [1] of 0.63 nM.
“apomyoglobin F-helix mutant G80A/P88A/S92A/H97N (natural protein)” yielded a Kd in assay [1] of 0.57 nM.
Regarding myoglobin peptide E7 (69-83), in assay [2], the percent inhibition of apoMb binding at 100 µM peptide was determined as 34%.
“apomyoglobin T39C (C-helix mutant) (natural protein)”: the Kd in assay [1] came out at 19.5 nM.
Turning to “apomyoglobin (sperm whale myoglobin, heme removed), wild type (from UniProt P02185 1-154) (natural protein)”, in assay [3], the stimulation of the ATPase activity of the 26S proteasome (580 nM substrate, 37°C, 15 min) worked out at 2 fold. The substance further had a Kd in assay [1] of 3.5 nM.
